The values below come from article PMC4383067 (Acta Neuropathologica Communications, 2015).

The assay addresses Amyloid fibrils of full-length human PrP (human, UniProt P04156 23-230). The assay can be described thus: static light scattering kinetics. Conditions: both partners purified.

B1: Full-length human acetylcholinesterase (dimeric, recombinant) (enzyme)
chain: EGREDAELLVTVRGGRLRGIRLKTPGGPVSAFLGIPFAEPPMGPRRFLPPEPKQPWSGVVDATTFQSVCYQYVDTLYPGFEGTEMWNPNRELSEDCLYLNVWTPYPRPTSPTPVLVWIYGGGFYSGASSLDVYDGRFLVQAERTVLVSMNYRVGAFGFLALPGSREAPGNVGLLDQRLALQWVQENVAAFGGDPTSVTLFGESAGAASVGMHLLSPPSRGLFHRAVLQSGAPNGPWATVGMGEARRRATQLAHLVGCPPGGTGGNDTELVACLRTRPAQVLVNHEWHVLPQESVFRFSFVPVVDGDFLSDTPEALINAGDFHGLQVLVGVVKDEGSYFLVYGAPGFSKDNESLISRAEFLAGVRVGVPQVSDLAAEAVVLHYTDWLHPEDPARLREALSDVVGDHNVVCPVAQLAGRLAAQGARVYAYVFEHRASTLSWPLWMGVPHGYEIEFIFGIPLDPSRNYTAEEKIFAQRLMRYWANFARTGDPNEPRDPKAPQWPPYTAGAQQYVSLDLRPLEVRRGLRAQACAFWNRFLPKLLSATDTLDEAERQWKAEFHRWSSYMVHWKNQFDHYSKQDRCSDL
notes: also called AChE; dimeric AChE
Regarding B1, the stoichiometry N (as a rule, the number of molecules, sites or subunits per partner or assembly) turned out to be 1.
